Test results taken from article PMC3444823.
pKd: −log10 of the molar value.

Assays:
[1] = target: truncated HIV-1 gp120MS (residues 83-492, intact variable loops) (HIV-1 (clade A isolate)); experiment: SEC
[2] = target: truncated HIV-1 gp120SC (residues 83-492, intact variable loops) (HIV-1 (clade B isolate)); experiment: SEC
[3] = target: single-chain fusion protein of CD4i antibody domain m36.4 with gp120MS (human | HIV-1 (clade A isolate)); experiment: SPR
[4] = target: stabilized gp120SC with T257S+S375W mutations (HIV-1 (clade B isolate)); experiment: SPR
[5] = target: truncated HIV-1 gp120MS (residues 83-492, intact variable loops) (HIV-1 (clade A isolate)); experiment: SPR
[6] = target: truncated HIV-1 gp120SC (residues 83-492, intact variable loops) (HIV-1 (clade B isolate)); experiment: SPR
[7] = target: single-chain fusion protein of CD4i scFv m9 with gp120SC (HIV-1 (clade B isolate)); experiment: SPR
[8] = target: single-chain fusion protein of CD4i antibody domain m36.4 with gp120SC (human | HIV-1 (clade B isolate)); experiment: SPR
[9] = target: single-chain fusion protein of CD4i antibody domain m36.4 with gp140SC (human | HIV-1 (clade B isolate)); experiment: SPR

With “truncated HIV-1 gp120MS (residues 83-492, intact variable loops) (domain or fragment)” the stoichiometry N [1] was 2.
“truncated HIV-1 gp120SC (residues 83-492, intact variable loops) (domain or fragment)” showed a stoichiometry N [2] of 2.
Substance “two-domain human soluble CD4 (domain or fragment)” has a pKd [3] of 9.82, a pKd [4] of 7.23 and a pKd [5] of 9.68. The pKd [6] was 6.98, the pKd [7] was 8.74 and the pKd [8] was 9.14. The pKd [9] was 8.72.
